Laboratory results published in PMC10023573.

System: S9.6 anti-DNA:RNA hybrid monoclonal antibody, gold conjugate
Assay: immuno electron microscopy
Conditions: 10 ug/mL S9.6-gold, psoralen cross-linked, co-transcriptional R-loop (RNA hybrid), S9.6-gold 10 ug/mL with 80-100 ng pFC53, 1 h at 37 C, then 0.2% glutaraldehyde 15 min at 37 C, labeling buffer, salt and pH not given

Substance	binding signal (% of molecules labeled)	binding signal (% of molecules labeled) (labels cluster in Airn region)
pFC53 circular, T3-transcribed, R-loop in mAirn	50	–
pFC53 linear, T3-transcribed, R-loop in mAirn	–	50
